Where two headings read alike, the source gives them in different places.
Key:
[1] = biological target: T1, RSV/A/A2 pre-fusion F protein (respiratory syncytial virus RSV/A/A2, UniProt P03420 26-109); assay: BLI
[2] = biological target: T2, RSV/B/B9320 pre-fusion F protein (respiratory syncytial virus RSV/B/B9320); assay: BLI
[3] = biological target: T2, RSV/B/B9320 pre-fusion F protein; assay: ELISA
[4] = biological target: T1, RSV/A/A2 pre-fusion F protein; assay: ELISA
[5] = biological target: T1, RSV/A/A2 pre-fusion F protein; assay: BLI; remark: listed apart in the source

| Binder | Kd [1] | Kd [2] | EC50 [3] | EC50 [4] | Kd [5] |
| --- | --- | --- | --- | --- | --- |
| Palivizumab (SYNAGIS) (antibody, V domains shown) VH: QVTLRESGPALVKPTQTLTLTCTFSGFSLSTSGMSVGWIRQPPGKALEWLADIWWDDKKDYNPSLKSRLTISKDTSKNQVVLKVTNMDPADTATYYCARSMITNWYFDVWGAGTTVTVSS VL: DIQMTQSPSTLSASVGDRVTITCKCQLSVGYMHWYQQKPGKAPKLLIYDTSKLASGVPSRFSGSGSGTEFTLTISSLQPDDFATYYCFQGSGYPFTFGGGTKLEIK | 0.0407 nM | 0.362 nM | – | – | – |
| MEDI8897 (antibody, V domains shown) VH: QVQLVQSGAEVKKPGSSVMVSCQASGGLLEDYIINWVRQAPGQGPEWMGGIIPVLGTVHYGPKFQGRVTITADESTDTAYMELSSLRSEDTAMYYCATETALVVSETYLPHYFDNWGQGTLVTVSS VL: DIQMTQSPSSLSAAVGDRVTITCQASQDIVNYLNWYQQKPGKAPKLLIYVASNLETGVPSRFSGSGSGTDFSLTISSLQPEDVATYYCQQYDNLPLTFGGGTKVEIK | 0.0172 nM | 0.66 nM | – | – | – |
| 4F1En1 (VH-S75R) (antibody, V domains shown) VH: QVQLVESGGGVVQPGRSLRLSCAASGFSFYSYSVHWVRQAPGKGLEWVADVVYDGNHQHYTDSVKGRFTISRDTRKNTVYLQMGSLRAEDTALYYCTARSLVITLAGAGRDDYWGQGTTVTVSS VL: DIVMTQSPLSLPVTPGEPASISCRSSQSLLHSNGYTYLDWYLQKPGQSPQLLIFLGSSRASGVPDRFSGSGSGTDFTLKISRVEAEDVGVYYCVQDLQTSLTFGGGTKLEIKR | – | 0.0018 nM | 0.0565 µg/mL | 0.0245 µg/mL | < 0.001 nM |
| 4F1 germline reversion (antibody, V domains shown) VH: QVQLVESGGGVVQPGRSLRLSCAASGFSFYSYSVHWVRQAPGKGLEWVADVVYDGNHQHYTDSVKGRFTISRDTSKNTVYLQMGSLRAEDTALYYCTARSLVITLAGAGRDDYWGQGTTVTVSS VL: DIVMTQSPLSLPVTPGEPASISCRSSQSLLHSNGYTYLDWYLQKPGQSPQLLIFLGSSRASGVPDRFSGSGSGTDFTLKISRVEAEDVGVYYCVQDLQTSLTFGGGTKLEIKR | – | – | 0.0781 µg/mL | 0.0536 µg/mL | – |
| fully human monoclonal antibody 4F1 wild type (antibody, V domains shown) VH: EVQLVQSGGGVVRPGRSLRLSCAASGFSFYSYSVHWVRQAPGKGLEWVADVVYDGNHQHYTESVRGRFSISRDTSTNTVYLQMGSLRPEDTALYYCTARSLVITLAGAGRDDYWGQGTRVTVSS VL: DIVMTQSPLSLSVTPGEPASISCKSSQSLLHSNGYTYLDWYLQKPGKSPQLLIFLGSSRASGVPARFSGSGSGTDFTLEISRVEAEDVGVYYCVQDLQTSLTFGGGTKVDIK | – | 0.0684 nM | 0.111 µg/mL | – | – |
